Consider two substances from patent publication US8183340B2, “GLP-1 pegylated compounds” (Eli Lilly and Company, priority 2005, dated 2012).

Where no end group is shown, it is not given here. PEG = not defined here

One may read the EC50 as the concentration at which the effect is half-maximal. Higher therefore signals a less potent agent.

In one data set the target is T1, human GLP-1 receptor (Homo sapiens, UniProt P43220).
T1 construct: expressed in transfected cells
Kind of data set: In vitro activity assay, CRE-Luciferase in HEK-293 cells stably expressing the human GLP-1 receptor. The class given is cell-based. The settings on record: 5 hours incubation. How it is done:
“In vitro potency” as used herein, is the measure of the ability of a peptide to activate the GLP-1 receptor in a cell-based assay. In vitro potency is expressed as the “EC50” which is the effective concentration of compound that results in 50% activity in a single dose-response experiment. For the purposes of the present invention, in vitro potency is determined using a […] assay that employs HEK-293 cells that stably express the human GLP-1 receptor. These HEK-293 cells have stably integrated a DNA vector having a cAMP response element (CRE) driving expression of the luciferase gene. The interaction of a GLP-1 compound or a PEGylated GLP-1 compound with the receptor initiates a signal that results in activation of the cAMP response element and subsequent expression of luciferase. The EC50 values for the PEGylated GLP-1 compounds listed in Example 3 were determined using the luciferase assay described above. Relative in vitro potency values may be established by running Val8-GLP-1(7-37)OH or native GLP-1 as a control and assigning the control a reference value of 100%.
HEK-293 cells stably expressing the human GLP-1 receptor, using a CRE-Luciferase system, are seeded at 30,000 cells/well/80 μl low serum DMEM F12 medium into 96 well plates. […] Plates are placed in a Tri-lux luminometer and light output resulting from luciferase expression is calculated.

A short description of data set [1]: Pharmacokinetic analysis after IV or SC administration to male SD rats (plasma, N-terminal specific radioimmunoassay). The data set is classed as in vivo. As to conditions: for AUC0-last / CL/F (total body clearance as a function of bioavailability) / Cmax (maximum observed plasma concentration) / Tmax (time of maximum observed plasma concentration) / t1/2 (elimination half-life): mean. Here is the method:
A PEGylated GLP-1 compound of Formula I, wherein Xaa8 is Val; Xaa22 is Glu; Xaa33 is Ile; and Xaa46 is Cys-NH2 is administered by intravenous (IV) or subcutaneous (SC) routes at a dose of 0.1 mg/kg to male SD rats. The animals (3 rats per group) are bled at various times between 0 and 192 hours after dosing. Plasma is collected from each sample and analyzed by N-terminal specific radioimmunoassay. Pharmacokinetic parameters are calculated using noncompartmental methods (WinNonlin Pro). By IV administration, the PEGylated GLP-1 analog has an elimination half-life of approximately 1.2 days while by SC administration the PEGylated GLP-1 analog has an elimination half-life of approximately 1.1 days. […] Prolonged elimination half-life, slow clearance and subcutaneous bioavailability (approximately 30%) are observed for the compound. Representative data are shown below in Table 1

A short description of data set [2]: Pharmacokinetic analysis after SC administration to male cynomolgus monkeys (serum, N-terminal specific radioimmunoassay). The settings on record: 0.01 mg/kg, mean. The class given is in vivo. Here is the method:
A PEGylated GLP-1 compound of Formula I, wherein Xaa8 is Val; Xaa22 is Glu; Xaa33 is Ile; and Xaa46 is Cys-NH2 is administered by subcutaneous (SC) route at a dose of 0.01 mg/kg to male cynomolgus monkeys. The animals are bled at various times between 0 and 168 hours after dosing. Serum is collected from each sample and analyzed by N-terminal specific radioimmunoassay. Pharmacokinetic parameters are calculated using noncompartmental methods (WinNonlin Pro). Representative data are shown below in Table 2.

For another data set, the system named is Insulin. Briefly: Pharmacodynamic analysis: stepped intravenous glucose infusion, insulin levels by immunoassay. The class given is in vivo, male cynomolgus monkeys. As to conditions: for Insulin AUC, AUClast: stepped IV glucose infusion, mean. Here is the method: A PEGylated GLP-1 compound of Formula I, wherein Xaa8 is Val; Xaa22 is Glu; Xaa33 is Ile; and Xaa46 is Cys-NH2 is administered by subcutaneous (SC) route at a dose of 0.01 mg/kg to male cynomolgus monkeys. A stepped intravenous glucose infusion is conducted immediately after SC administration of vehicle control (phosphate buffered saline) and 1, 5, and 7 days after SC administration of 0.01 mg/kg PEGylated GLP-1 analog. Stepped intravenous glucose infusion procedures are conducted in sedated monkeys after a 16-hour fast. Blood samples are drawn at 10 minutes prior to start of glucose infusion and immediately prior to start of glucose infusion to define baseline. A stepped infusion of glucose (20% dextrose) is then initiated at a rate of 10 mg/kg/min for 20 minutes followed by an infusion of 25 mg/kg/min for an additional 20 minutes. Blood samples are taken at 10-minute intervals throughout the infusion period. Insulin levels are determined by immunoassay. […] Representative data are shown below in Table 3.

T1 sequence (P43220 24-463): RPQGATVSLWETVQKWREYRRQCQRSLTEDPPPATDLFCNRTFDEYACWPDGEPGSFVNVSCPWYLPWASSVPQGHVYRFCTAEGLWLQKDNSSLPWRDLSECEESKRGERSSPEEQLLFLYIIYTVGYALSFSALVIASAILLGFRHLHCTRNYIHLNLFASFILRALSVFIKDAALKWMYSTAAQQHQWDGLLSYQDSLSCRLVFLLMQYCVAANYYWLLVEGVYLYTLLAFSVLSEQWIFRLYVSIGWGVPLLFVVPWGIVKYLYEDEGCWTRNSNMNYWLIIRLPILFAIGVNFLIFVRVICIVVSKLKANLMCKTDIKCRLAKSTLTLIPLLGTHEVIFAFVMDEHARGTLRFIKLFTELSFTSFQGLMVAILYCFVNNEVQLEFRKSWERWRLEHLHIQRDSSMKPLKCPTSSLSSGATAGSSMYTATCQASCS

As for “PEGylated GLP-1 compound of Formula I, wherein Xaa8 is Val; Xaa22 is Glu; Xaa33 is Ile; and Xaa46 is Cys: Formula I (SEQ ID NO: 1) peptide, one PEG molecule covalently attached to Cys45 and one to Cys46 (HVEGTFTSDVSSYLEEQAAKEFIAWLIKGGPSSGAPPPC(PEG)C(PEG); reading uncertain)”, in the data set with human GLP-1 receptor, the EC50 was determined as 0.22 ± 0.03 nM.

Take “PEGylated GLP-1 compound of Formula I, wherein Xaa8 is Val; Xaa22 is Glu; Xaa33 is Ile; and Xaa46 is Cys-NH2: Formula I (SEQ ID NO: 1) peptide, one PEG molecule covalently attached to Cys45 and one to Cys46-NH2 (HVEGTFTSDVSSYLEEQAAKEFIAWLIKGGPSSGAPPPC(PEG)C(PEG)-NH2; reading uncertain)”: in the data set with human GLP-1 receptor, a half-maximal effect (EC50) was put at 0.36 ± 0.04 nM. The adverse clinical observations entry in data set [1] (IV or SC administration of 0.1 mg/kg) was “No adverse clinical observations”. Besides, in data set [1] (IV, 0.1 mg/kg), the elimination half-life result is “approximately 1.2 days”, the AUC0-last came out at 52292 ng·h/mL, the “CL/F (total body clearance as a function of bioavailability)” value (“CL/F” for short) stood at 1.9 mL/h/kg and the “Cmax (maximum observed plasma concentration)” value was 2020 ng/mL. In data set [1] (IV, 0.1 mg/kg), the “Tmax (time of maximum observed plasma concentration)” value stood at 0.08 h and the “t1/2 (elimination half-life)” value turned out to be 25.8 h. Further, in data set [1] (SC, 0.1 mg/kg), the elimination half-life entry is listed as “approximately 1.1 days”, the subcutaneous bioavailability result is given as “approximately 30%”, the AUC0-last came to 15423 ng·h/mL and the “CL/F” value amounted to 6.5 mL/h/kg. In addition, in data set [1] (SC, 0.1 mg/kg), the “Cmax (maximum observed plasma concentration)” value turned out to be 191 ng/mL, the “Tmax (time of maximum observed plasma concentration)” value was found to be 24.0 h and the “t1/2 (elimination half-life)” value is 28.3 h. In data set [2], the AUC0-last worked out at 7464.78 ng·h/mL, the “CL/F” value worked out at 1.06 mL/h/kg, the “Cmax (maximum observed serum concentration)” value came to 69.49 ng/mL and the “Tmax (time of maximum observed serum concentration)” value stood at 48 h. The “t1/2 (elimination half-life estimate)” value in data set [2] is 75.69 h. For the same substance, the “Insulin AUC, AUClast” value in the data set on Insulin (Day 1 after SC 0.01 mg/kg) came to 30862 pM·min. Moreover, the “Insulin AUC, AUClast” value in the data set with Insulin (Day 5 after SC 0.01 mg/kg) is 27203 pM·min. In addition, in the data set with Insulin (Day 7 after SC 0.01 mg/kg), the “Insulin AUC, AUClast” value came out at 28542 pM·min. Also, in the data set on Insulin (single SC injection of 0.01 mg/kg, relative to placebo, p<0.0001), the “duration of insulinotropic activity” value was “at least 7 days”.
